# Read-outs that look alike come from different tables or passages of the source. *1 amine or outer side, *2 acyl side, *3 side chain or, on linkers, in order; H or OH if unused. Where a SMILES comes first, the peptide text is derived from it. Bridges are numbered along the chain shown (N, C = ends). [ ]: non-standard residue; d: D form. The star is where a group is joined. DOTA = O=C(O)CN1CCN(CC(=O)O)CCN(CC(=O)*)CCN(CC(=O)O)CC1; 1Nal = N[C@@H](Cc1cccc2ccccc12)C(=O)O; TBMB = c1c(C[*:1])cc(C[*:3])cc1C[*:2]; Palmitoyl = CCCCCCCCCCCCCCCC(=O)*; Tle = CC(C)(C)[C@H](N)C(=O)O; βAla = NCCC(=O)O; Sar = CNCC(=O)O
# Key:
# [1] = test system: HT1080 tumor; assay: Organ distribution of 177Lu-labelled peptides in HT1080 xenograft mice; format: in vivo, BALB/c nu/nu mice; conditions: 177Lu-labelled, 48 hr p.i.
# Protocol: (§1) General procedure for radiolabelling with Lu-177.
# (§2) • 50 μL 0.25 M Na-Acetate buffer pH 5.2+0.1% Tween 20; • 10 μL [Lu-177]LuCl3 in 0.05 M HCl; and • 2 μL of the diluted peptide (2 nmols). […]
# (§3) Organ distribution studies, general method: For organ distribution, the respective dose is prepared by dilution of the labeling reaction mixture in injection buffer (0.25 M Na-Acetate pH 7+0.05% Tween20). The ^177Lu-radiolabeled peptide was injected via the tail vein of the nu/nu mice (50 kBq per mouse), transplanted with the respective cell line. At indicated time points after injection the animals were sacrificed. Blood, heart, lung, spleen, liver, kidney, muscle, brain, femur, and the tumor were dissected, blotted dry, and weighed. The radioactivity was measured with a γ-counter (CobraII; Canberra Packard) along with a sample of the injection solution to calculate the percentage injected dose per gram of tissue (% ID/g).
# (§4) The γ- and β-emitter ^177LuCl3 (NEZ307D, Perkin Elmer, in 0.04 M HCl), with a t1/2 of 6.7 days was used for both in vivo biodistribution and internalization studies. Labeling reactions were performed by adding 10 μL ^177LuCl3 (˜10 MBq) in 50 mM HCl, 2 μL of the diluted peptide (1 mM solution in 50 mM HEPES buffer pH 7+0.1% Tween 20 diluted from a 10 mM DMSO stock) to 50 μL 50 mM HEPES buffer pH 7 supplemented with 0.1% Tween 20. The reaction mixture was incubated at 98° C. for 10 minutes. The radiochemical yield (RCY) was determined using high performance liquid chromatography (HPLC) system equipped with a Latek P402 (Latek, Eppelheim, Germany), a HITACHI variable UV detector (absorbance was measured at 214 and 254 nm) and a gamma detector (Bioscan, WA, USA), using a Chromolith RP-18 column (100×4.6 mm; Merck). The analytical HPLC run was performed at 4 mL/min, using a linear A (0.1% trifluoroacetic acid (TFA) in water) to B (0.1% TFA in acetonitrile) gradient (0% B to 100% B in 6 min). Thin-layer chromatography was performed in parallel to confirm the results of the radio-HPLC. The RCY was generally >95%, and thus, the output of labelling reactions was directly diluted with the appropriate buffer and further unlabeled peptide if required, to use in subsequent experiments.
# (§5) 5×10^6 cells of HT1080 were subcutaneously inoculated into the right trunk of male 6-week-old BALB/c nu/nu mice (Charles River Laboratories). The tumors were grown for approximately 1 week, to a maximum size of ˜200 mm^3. Respective doses were prepared by mixing a fixed quantity of 5 pmoles ^177Lu labelled peptides (at approx. 50 kBq) with different quantities of non-labelled peptide (derived from 1 mM stock solution in 0.25 M sodium acetate pH 7+0.05% Tween20) in 100 μL injection buffer (0.25 M sodium acetate pH 7+0.05% Tween20). 3 animals were used per dose and timepoint. Radiolabelled peptide solutions were injected via the tail vein, followed by sacrifice at various time points. Organs of interest (blood, heart, lung, spleen, liver, kidney, muscle, small intestine, brain, HT1080 tumor) were dissected, blotted dry, and weighed. The radioactivity was measured using a gamma counter and calculated as % ID/g.
# [2] = as above; format: in vivo, BALB/c nu/nu mice; conditions: male, BALB/c nu/nu, iv, total radioactivity
# Protocol: as §1, §2, §3, §4, §5
# [3] = target: MT1-MMP hemopexin domain (Homo sapiens, UniProt P50281); assay: Fluorescence polarization direct binding / competition assay to MT1-MMP hemopexin domain
# Protocol: Direct Binding Fluorescence Polarization or Anisotropy Assays are performed by titrating a constant concentration of fluorescent tracer (here, the fluoresceinated bicyclic peptide to be studied) with its binding partner (here, the MT1-MMP hemopexin domain). As the concentration of binding partner increases during the titration, the polarization signal changes in proportion to the fraction of bound and unbound material. This allows determination of […] (Kd) quantitatively. Assay data can be fit using standard ligand binding equations.
# Typically, concentrations of the tracer are ideally well below the Kd of the tracer: titrant pair, and concentrations chosen are usually at ˜1 nM or less. The titrant (binding partner) concentration is varied from 0.1 nM up to typically 5 μM. The range is chosen such that the maximum change in fluorescent polarization can be observed. Buffers employed are phosphate buffered saline in the presence of 0.01% Tween. Experiments were run in black 384 well low-bind/low volume plates (Corning 3820), and the fluorescent polarization signal was measured using a BMG Pherastar FS plate reader. Fluorescent tracers referred to in the text are bicyclic peptides that have been fluoresceinated using 5,6-carboxyfluorescein. Fluoresceination may be performed on the N-terminal amino group of the peptide, which is separated from the bicycle core sequence by a sarcosine spacer (usually Sar10 (SEQ ID NO: 73)). This can be done during Fmoc solid phase synthesis or post-synthetically (after cyclization with the molecular scaffold reagent and purification) if the N-terminal amino group is unique to the peptide. Fluoresceination can also be performed on the C-terminus, usually on a Lysine introduced as the first C-terminal residue, which is then separated from the bicycle core sequence by a sarcosine spacer (usually Sar6 (SEQ ID NO: 69)). Thus, N-terminal tracers can have a molecular format described as Fluo-Ala-Sar10-A (SEQ ID NO: 72) (BicycleCoreSequence), and (BicycleCoreSequence)-A-Sar6-K (Fluo) (SEQ ID NO: 67) for a C-terminally fluoresceinated construct.
# Fluorescent tracers used in the Examples are A-(17-69)-A-Sar6-K (Fluo) (SEQ ID NO: 67), A-(17-69-07)-A-Sar6-K (Fluo) (SEQ ID NO: 67), and A-(17-69-12)-A-Sar6-K (Fluo) (SEQ ID NO: 67). Due to the acidic nature of the 17-69 fluorescent peptides, they were typically prepared as concentrated DMSO stocks, from which dilution were prepared in 100 mM Tris pH 8 buffer.
# Due to their high affinities to the MT1-MMP Hemopexin domain (PEX), the fluoresceinated derivatives of 17-69-07 and 17-69-12 (denoted as 17-69-07-N040 and 17-69-12-N005, respectively) can be used for competition experiments (using FP for detection). […] Dissociation of the complex can be measured quantitatively, and the Kd of the competitor (titrant) to the target protein determined. The advantage of the competition method is that the affinities of non-fluoresceinated bicyclic peptides can be determined accurately and rapidly.
# Subsequently, the non-fluorescent competitor bicyclic peptide (usually just the bicycle core sequence) is titrated, such that it displaces the fluorescent tracer from the target protein. The displacement of the tracer is measured and associated with a drop in fluorescence polarization. The drop in fluorescence polarization is proportional to the fraction of target protein bound with the non-fluorescent titrant, and thus is a measure of the affinity of titrant to target protein. […]
compound,measurement,setting,value
CCCCCCCCCCCCCCCC(=O)NCCC(=O)N(C)CC(=O)N(C)CC(=O)N(C)CC(=O)N(C)CC(=O)N(C)CC(=O)N[C@@H](CCCCNC(=O)CN1CCN(CC(=O)O)CCN(CC(=O)O)CCN(CC(=O)O)CC1)C(=O)N(C)CC(=O)N(C)CC(=O)N(C)CC(=O)N(C)CC(=O)N(C)CC(=O)N(C)CC(=O)N(C)CC(=O)N(C)CC(=O)N(C)CC(=O)N(C)CC(=O)N[C@@H](C)C(=O)N[C@H]1CSCc2cc3cc(c2)CSC[C@H](NC(=O)[C@@H](C)NC(=O)[C@H](Cc2cccc4ccccc24)NC(=O)[C@H](CCC(=O)O)NC(=O)[C@H](CC(N)=O)NC(=O)[C@@H](C)NC1=O)C(=O)N[C@@H](CCC(=O)O)C(=O)N[C@@H](CC(=O)O)C(=O)N[C@@H](Cc1ccccc1)C(=O)N[C@@H](Cc1ccc(O)cc1)C(=O)N[C@@H](CC(=O)O)C(=O)N[C@@H](C(C)(C)C)C(=O)N[C@H](C(N)=O)CSC3 [I-25] ({Palmitoyl-βAla}-[Sar][Sar][Sar][Sar][Sar]K(DOTA)[Sar][Sar][Sar][Sar][Sar][Sar][Sar][Sar][Sar][Sar]AC[dA]NE[1Nal][dA]CEDFYD[Tle]C-NH2; linker 18-24-31 via TBMB),"signals in spleen, liver and small intestine",[1],< 4.5%
same,tissue to tissue ratio at 6 h,"[2]; HT1080 tumor / blood, 750 pmole/mouse, 6 hrs, read-out: tumour to blood signal ratio",19
same,tissue to tissue ratio at 48 h,"[2]; HT1080 tumor / blood, 750 pmole/mouse, 48 hrs, read-out: tumour to blood signal ratio",97
same,tissue uptake at 2 h,"[2]; HT1080 tumor, 750 pmole/mouse, 2 h p.i., read-out: tumour accumulation",25 ± 1.61 %ID/g
same,tissue uptake at 6 h,"[2]; HT1080 tumor, 750 pmole/mouse, 6 h p.i., read-out: tumor uptake (maximum)",35.9 ± 1.11 %ID/g
same,tissue uptake at 48 h,"[2]; HT1080 tumor, 177Lu-labelled, 48 hr p.i., 750-1000 pmole/mouse, read-out: tumour signal",~26 %ID/g
same,tissue uptake at 48 h,"[2]; mouse, HT1080 tumor, 750 pmoles injected dose, 48 h p.i., read-out: tumor accumulation in HT1080 xenografts",24.1 ± 2.5 %ID/g
same,Kd,[3],2.25 ± 0.5 nM

# From patent US12552837B2, “Bicyclic peptide ligands with detectable moieties and uses thereof” (BicycleRD Limited, priority 2017, dated 2026)
